Assay results published in the DeepSol protein solubility set.

Assay: soluble on expression in E. coli; label from the status in PepcDB or PDB records

| Sequence | soluble on expression in E. coli |
| --- | --- |
| MTKSLESVSFKDVTVDFSRDEWQQLDLAQKSLYREVMLENYFNLISVGCQVPKPEVIFSLEQEEPCMLDGEIPSQSRPDGDIGFGPLQQRMSEEVSFQSEININLFTRDDPYSILEELWKDDEHTRKCGENQNKPLSRVVFINKKTLANDSIFEYKDIGEIVHVNTHLVSSRKRPHNCNSCGKNLEPIITLYNRNNATENSDKTIGDGDIFTHLNSHTEVTACECNQCGKPLHHKQALIQQQKIHTRESLYLFSDYVNVFSPKSHAFAHESICAEEKQHECHECEAVFTQKSQLDGSQRVYAGICTEYEKDFSLKSNRQKTPYEGNYYKCSDYGRAFIQKSDLFRCQRIHSGEKPYEYSECEKNLPQNSNLNIHKKIHTGGKHFECTECGKAFTRKSTLSMHQKIHTGEKPYVCTECGKAFIRKSHFITHERIHTGEKPYECSDCGKSFIKKSQLHVHQRIHTGENPFICSECGKVFTHKTNLIIHQKIHTGERPYICTVCGKAFTDRSNLIKHQKIHTGEKPYKCSDCGKSFTWKSRLRIHQKCHTGERHYECSECGKAFIQKSTLSMHQRIHRGEKPYVCTECGKAFFHKSHFITHERIHTGEKPYECSICGKSFTKKSQLHVHQQIHTGEKPYRCAECGKAFTDRSNLFTHQKIHTGEKPYKCSDCGKAFTRKSGLHIHQQSHTGERHYECSECGKAFARKSTLIMHQRIHTGEKPYICNECGKSFIQKSHLNRHRRIHTGEKPYECSDCGKSFIKKSQLHEHHRIHTGEKPYICAECGKAFTIRSNLIKHQKIHTKQKPYKCSDLGKALNWKPQLSMPQKSDNGEVECSMPQLWCGDSEGDQGQLSSI | soluble |
| MTKTVEMVITGAQVLNVYTREFEATSLWIDHGRIISNLRDEPYIAAQHVDATGQWIVPGMIDAHVHMESSMVAPSELGKVLLQHGVTTIATDPHELANVAGLEHHHHHH | not soluble |
| MTLDVGPEDELPDWAAAKEFYQKYDPKDVIGRGVSSVVRRCVHRATGHEFAVKIMEVTAERLSPEQLEEVREATRRETHILRQVAGHPHIITLIDSYESSSFMFLVFDLMRKGELFDYLTEKVALSEKETRSIMRSLLEAVSFLHANNIVHRDLKPENILLDDNMQIRLSDFGFSCHLEPGEKLRELCGTPGYLAPEILKCSMDETHPGYGKEVDLWACGVILFTLLAGSPPFWHRRQILMLRMIMEGQYQFSSPEWDDRSSTVKDLISRLLQVDPEARLTAEQALQHPFFERCEGSQPWNLTPRQRFRVAVWTVLAAGRVALSTHRVRPLTKNALLRDPYALRSVRHLIDNCAFRLYGHWVKKGEQQNRAALFQHRPPGPFPIMGPEEEGDSAAITEDEAVLVLG | soluble |
| MTLEEARKRVNELRDLIRYHNYRYYVLADPEISDAEYDRLLRELKELEERFPELKSPDSPTLQVGARPLEATFRPVRHPTRMYSLDNAFNLDELKAFEERIERALGRKGPFAYTVEHKVDGLSVNLYYEEGVLVYGATRGDGEVGEEVTQNLLTIPTIPRRLKGVPERLEVRGEVYMPIEAFLRLNEELEERGERIFKNPRNAAAGSLRQKDPRITAKRGLRATFYALGLGLEEVEREGVATQFALLHWLKEKGFPVEHGYARAVGAEGVEAVYQDWLKKRRALPFEADGVVVKLDELALWRELGYTARAPRFAIAYKFPAEEKETRLLDVVFQVGRTGRVTPVGILEPVFLEGSEVSRVTLHNESYIEELDIRIGDWVLVHKAGGVIPEVLRVLKERRTGEERPIRWPETCPECGHRLLKEGKVHRCPNPLCPAKRFEAIRHFASRKAMDIQGLGEKLIERLLEKGLVKDVADLYRLRKEDLVGLERMGEKSAQNLLRQIEESKKRGLERLLYALGLPGVGEVLARNLAARFGNMDRLLEASLEELLEVEEVGELTARAILETLKDPAFRDLVRRLKEAGVEMEAKEKGGEALKGLTFVITGELSRPREEVKALLRRLGAKVTDSVSRKTSYLVVGENPGSKLEKARALGVPTLTEEELYRLLEARTGKKAEELV | soluble |
| MTLPPDAPSRHRLVHALERTADLLDILGGEDFKSRAYRSAARSLEELNEETPELLAREFTGIPKVGKGIAAELSDFARSGTFAPLEAAAGQLPPGLLDLLGVRGLGPKKIRSLWLAGIDSLERLREAAESGELAGLKGFGAKSAATILENVVFLFEARQRQSLRAGLAVAEELAGALTDLSPAPAGDVRRGLETVRAAELTVTGTPDDVLARLPELTVQGDGVLSGDYEGVPVEIACAPAEARGALDLLRSGEHFAGQVQAAAQARGFTLTAGGLSRGDEVLPTPTEAVVFHALDLPFRPAEYREPEHDDLWQTLPDPAELVTVGDLRGMIHTHSTWSDGGASIREMAEATLTLGHEFLGTADHSRAAYYANGLTIERLREQLKEIRELQRAGLPIVAGSEVDILDDGSLDFPDDVLGELDYVVVSVHSNFTLDAARQTERLIRAVSHPLVTVLGHATGRLLLRRPGYALDLDAVLGACEANGTVVEINANAARLDLDWREALRWRERLKFAINTDAHVPGGLRDARYGVMQARKAGLTPAHVVNSLGRAEFLDFVARQRAARGAPGPADRAHHHHHH | soluble |
| MTLPPVGSTLYSKGTHNYKGLFKECATVGSTLYSKGTHNDADNVPVLRLVGSTLYSKGTHNSRLARPPTRLVGSTLYSKGTHNMILDWWLGRWNVQ | not soluble |
| MTLRYEIFPVTPFRQNCTLIWDDESGEAVLTDVGGDVPFLLQALANRKLTLTAIWLTHGHLDHAGGVVEMLKTHKVPVLGPHPDDEFLLQSLPQTTAQYGFPVSPAFAPNRWLEEGETLTVGRYAFQVLHIPGHTPGHIVFYCAEAELLIAGDVLFYETIGRTDFPRGNHADLINNIRNKLFTLPETVQVVAGHGRMTSIGHEKRHNPFF | not soluble |
| MTLSRVSEMALSPDGKTAVYAVSFPDVKTNKATRELFTVNLDGSGRKQITDTESNEYAPAWMADGKRIAFMSNEGGSMQLWVMNADGTERRQLSNIEGGITGFLFSPDEKQVLFTKDIKFGKRTKDIYPDLDKATGRIITDLMYKHWDEWVETIPHPFIANATDGMITTGKDIMEGEPYEAPMKPWSGIEDFSWSPDGQNIAYASRKKTGMAYSLSTNSDIYIYNLASGRTHNISEGMMGYDTYPKFSPDGKSIAWISMERDGYESDLKRLFVADLATGKRTHVNPTFDYNVDMIQWAPDSKGIYFLACKEAETNLWEITLKTGKIRQITQGQHDYADFSVRNDVMLAKRHSFELPDDLYRVNLKNGAAQAVTAENKVILDRLTPITCEKRWMKTTDGGNMLTWVVLPPNFDKNKKYPAILYCQGGPQNTVSQFWSFRWNLRLMAEQGYIVIAPNRHGVPGFGQKWNEQISGDYGGQNMRDYLTAVDEMKKEPYVDGDRIGAVGASYGGFSVYWLAGHHDKRFAAFIAHAGIFNLEMQYATTEEMWFANWDIGGPFWEKDNVVAQRTYATSPHKFVQNWDTPILMIHGELDFRILASQAMAAFDAAQLRGVPSEMLIYPDENHWVLQPQNALLFHRTFFGWLDRWLKK | not soluble |
| MTLTEQPQRIAILHSLYLEYFLALGTPPIASAGASTGDAMKALGEWETLKPYAGTAKIIDLGSARDLNLEAILGANPDVIVTFKGQGNLDKIYEQLEQIAPVILVDFSAPWQEQILACAEIVNKEADAQKLIKEIEDSVQSAKEKLSRLEHHHHHH | not soluble |
| MTLVGECLSPHVTMAQRDHIRLEWRMPYRVLERTRQVAWTCFCRASVYELCEGGGQAFLRRTVQLDGKPTAHETSPCSISEARVIWTALLSGRAR | not soluble |
| MTMRFSVLASGSTGNAFYIETDRQRLLVDAGLSGKQLEELFAEIGRHPKQLDALLVTHEHSDHIKGLGVLARKYRLPVYANEKTWRAMEQAVGDIPPEQKFVFPLGAVRTFGDVDVESFGVSHDAAEPMFYVFHYEGKKLALLTDTGYVSERIKKTIENADVFVFESNHDVGMLRMGRYPWSVKRRILSDVGHISNEEAGLALADVIGDRTKQIYLAHLSQDNNMKELARMTVTQVLEQKGLAVGARFRLYDTDPRRATALAYV | not soluble |
| MTNKREDVRNIAIIAHVDHGKTTLVDELLKQSGIFRENEHVDERAMDSNDIERERGITILAKNTAVDYKGTRINILDTPGHADFGGEVERIMKMVDGVVLVVDAYEGTMPQTRFVLKKALEQNLKPVVVVNKIDKPSARPEGVVDEVLDLFIELEANDEQLEFPVVYASAVNGTASLDPEKQDDNLQSLYETIIDYVPAPIDNSDEPLQFQVALLDYNDYVGRIGIGRVFRGKMRVGDNVSLIKLDGTVKNFRVTKIFGYFGLKRLEIEEAQAGDLIAVSGMEDINVGETVTPHDHQEALPVLRIDEPTLEMTFKVNNSPFAGREGDFVTARQIQERLNQQLETDVSLKVSNTDSPDTWVVAGRGELHLSILIENMRREGYELQVSKPQVIIKEIDGVMCEPFERVQCEVPQENAGAVIESLGARKGEMVDMTTTDNGLTRLIFNVPARGMIGYTTEFMSMTRGYGIINHTFEEFRPRIKAQIGGRRNGALISMDQGSASTYAILGLEDRGVNFMEPGTEVYEGMIVGEHNRENDLTVNITKTKHQTNVRSATKDQTQTMNRPRILTLEEALQFINDDELVVVTPESIRLRKKILNKNVREKEAKRIKQMMQENE | not soluble |
| MTPAELKRLYHIIKVQLEYGLDELLPDHQLTKAPLLMRKSLFWIKNQHPEKPLGERLRLALQELGPVWIKFGQMMSTRRDLFPPHIADPLALLQDQVAPFDGELAKQQMEKALGGPLENWFTEFDIKPLEHHHHHH | not soluble |
| MTPDELARLTGYSRQTINKWVRKEGWTTSPKPGVQGGKARLVHVNEQVREYIRNAERPEGQGEAPALSGDAPLEVLLVTLAKEMTPVEQKQFTSLLLREGIIGLLQRLGIRDSK | not soluble |
| MTPDWFAVVDATWPAADSRTDGTLTLREGRGGGKRVSAASASGAVSEPQIEAAEAAMRQMGQPPLFQLRPGDEGLDAALAGRGYSIVDPVNIYACPVSQLTDLPMPRVTVFALWEPLAIMRELWAEGGIGPGRLAVMDRVKGPKTGLLMRHQDKPGGVAFVAIHDGVAMLHALEIPPHQRRKGLGKWAMRGAAFWALDNGAHTLSVICTKANEGANALYRSLGMQLVGEYHYRLLQEERQTA | not soluble |
| MTPRSLVRIVGVVVATTLALVSAPAGGRAAHADPCSDIAVVFARGTHQASGLGDVGEAFVDSLTSQVGGRSIGVYAVNYPASDDYRASASNGSDDASAHIQRTVASCPNTRIVLGGYSQGATVIDLSTSAMPPAVADHVAAVALFGEPSSGFSSMLWGGGSLPTIGPLYSSKTINLCAPDDPICTGGGNIMAHVSYVQSGMTSQAATFAANRLDHAG | not soluble |
| MTQELGPLARTLSMPYYDDALPAHDQFHAKRVRDIALRLAGDCNGSVDRDVLAASAWLHDIGRPRERAGEIDDHDDWATAEAAQLLAAEGVKPDRIGRIKHCIQAHSIRTSSPEPRTLEAKLLFDADKLDAAGARGLVRLACIVGERSGRTGEKYAVIDDTSATDLGTSNSPDIELLRDWAQERLDTLYTQPGRRLGQTRREFMDEFFTHFAGEIGASGEWLEHHHHHH | not soluble |
| MTQNINQLAVNTIRTLSIDAINAANSGHPGLPMGAAPMAYALWANHLNHNPNHPKWFNRDRFVLSAGHGSSLLYSLLHLAGYDVSIDDLKNFRKLNSKTPGHPEFGHTSGVEATTGPLGQGIANAVGMAMAEAHLAAKFNKDGHSIIDHNTYALVGDGDLMEGVAYEAMSMEGVAYEAMSMAGHMKLGKLIVLYDSNEISLDGELNIAFSEDMQKRVESAHWQYVRVEDGNDVDAITKAIQLAKDNTDQPTLIEIRTVIGYGSPKVAGTNKAHGNPLGLEEATATKQVYGWHYEEDFFVPEEVTAHFNELKQKGIEKERGWNEQFNLYRESNPALADELEKAIIGEVLIEAKDILSFDSEKTISTRVASGEAINHYVKSIPSIFGGSADLSHSTMTDIKGEAVYAVESYAGRNIYFGVREHAMGAAANGLALHGGVKPFVSTFFVFNDYLRPSIRLAALQKLPVTYVFTHDSIAVGEDGPTHEPIEHLAALRAIPGLTVIRPSDANETASAWAYALQQTEGPVVLVLSRQNLPVFHETKANIENLSKGAYVLTQTNENPDVILIATGSEVSLAASAKAKLEEDNVSVRIVAMPSWELFDRQSKEYKESVLPSSVTKRVSLEMGVSLGWERYVGQEGNILSIETFGASGTGAEVMNLFGFTTENVVQITKNVLNS | not soluble |
